Laboratory results published in patent US8642284.

B1: endogenous mSir2α protein of mouse NIH3T3 cells (protein)
chain: ADEVALALQAAGSPSAAAAMEAASQPADEPLRKRPRRDGPGLGRSPGEPSAAVAPAAAGCEAASAAAPAALWREAAGAAASAEREAPATAVAGDGDNGSGLRREPRAADDFDDDEGEEEDEAAAAAAAAAIGYRDNLLLTDGLLTNGFHSCESDDDDRTSHASSSDWTPRPRIGPYTFVQQHLMIGTDPRTILKDLLPETIPPPELDDMTLWQIVINILSEPPKRKKRKDINTIEDAVKLLQECKKIIVLTGAGVSVSCGIPDFRSRDGIYARLAVDFPDLPDPQAMFDIEYFRKDPRPFFKFAKEIYPGQFQPSLCHKFIALSDKEGKLLRNYTQNIDTLEQVAGIQRILQCHGSFATASCLICKYKVDCEAVRGDIFNQVVPRCPRCPADEPLAIMKPEIVFFGENLPEQFHRAMKYDKDEVDLLIVIGSSLKVRPVALIPSSIPHEVPQILINREPLPHLHFDVELLGDCDVIINELCHRLGGEYAKLCCNPVKLSEITEKPPRPQKELVHLSELPPTPLHISEDSSSPERTVPQDSSVIATLVDQATNNNVNDLEVSESSCVEEKPQEVQTSRNVENINVENPDFKAVGSSTADKNERTSVAETVRKCWPNRLAKEQISKRLEGNQYLFVPPNRYIFHGAEVYSDSEDDVLSSSSCGSNSDSGTCQSPSLEEPLEDESEIEEFYNGLEDDTERPECAGGSGFGADGGDQEVVNEAIATRQELTDVNYPSDKS
B2: recombinant mSir2α mutant G253A (protein)
chain: MADEVALALQAAGSPSAAAAMEAASQPADEPLRKRPRRDGPGLGRSPGEPSAAVAPAAAGCEAASAAAPAALWREAAGAAASAEREAPATAVAGDGDNGSGLRREPRAADDFDDDEGEEEDEAAAAAAAAAIGYRDNLLLTDGLLTNGFHSCESDDDDRTSHASSSDWTPRPRIGPYTFVQQHLMIGTDPRTILKDLLPETIPPPELDDMTLWQIVINILSEPPKRKKRKDINTIEDAVKLLQECKKIIVLTAAGVSVSCGIPDFRSRDGIYARLAVDFPDLPDPQAMFDIEYFRKDPRPFFKFAKEIYPGQFQPSLCHKFIALSDKEGKLLRNYTQNIDTLEQVAGIQRILQCHGSFATASCLICKYKVDCEAVRGDIFNQVVPRCPRCPADEPLAIMKPEIVFFGENLPEQFHRAMKYDKDEVDLLIVIGSSLKVRPVALIPSSIPHEVPQILINREPLPHLHFDVELLGDCDVIINELCHRLGGEYAKLCCNPVKLSEITEKPPRPQKELVHLSELPPTPLHISEDSSSPERTVPQDSSVIATLVDQATNNNVNDLEVSESSCVEEKPQEVQTSRNVENINVENPDFKAVGSSTADKNERTSVAETVRKCWPNRLAKEQISKRLEGNQYLFVPPNRYIFHGAEVYSDSEDDVLSSSSCGSNSDSGTCQSPSLEEPLEDESEIEEFYNGLEDDTERPECAGGSGFGADGGDQEVVNEAIATRQELTDVNYPSDKS
B3: recombinant mSir2α mutant G270A (protein)
chain: MADEVALALQAAGSPSAAAAMEAASQPADEPLRKRPRRDGPGLGRSPGEPSAAVAPAAAGCEAASAAAPAALWREAAGAAASAEREAPATAVAGDGDNGSGLRREPRAADDFDDDEGEEEDEAAAAAAAAAIGYRDNLLLTDGLLTNGFHSCESDDDDRTSHASSSDWTPRPRIGPYTFVQQHLMIGTDPRTILKDLLPETIPPPELDDMTLWQIVINILSEPPKRKKRKDINTIEDAVKLLQECKKIIVLTGAGVSVSCGIPDFRSRDAIYARLAVDFPDLPDPQAMFDIEYFRKDPRPFFKFAKEIYPGQFQPSLCHKFIALSDKEGKLLRNYTQNIDTLEQVAGIQRILQCHGSFATASCLICKYKVDCEAVRGDIFNQVVPRCPRCPADEPLAIMKPEIVFFGENLPEQFHRAMKYDKDEVDLLIVIGSSLKVRPVALIPSSIPHEVPQILINREPLPHLHFDVELLGDCDVIINELCHRLGGEYAKLCCNPVKLSEITEKPPRPQKELVHLSELPPTPLHISEDSSSPERTVPQDSSVIATLVDQATNNNVNDLEVSESSCVEEKPQEVQTSRNVENINVENPDFKAVGSSTADKNERTSVAETVRKCWPNRLAKEQISKRLEGNQYLFVPPNRYIFHGAEVYSDSEDDVLSSSSCGSNSDSGTCQSPSLEEPLEDESEIEEFYNGLEDDTERPECAGGSGFGADGGDQEVVNEAIATRQELTDVNYPSDKS
B4: recombinant mSir2α mutant I262A (protein)
chain: MADEVALALQAAGSPSAAAAMEAASQPADEPLRKRPRRDGPGLGRSPGEPSAAVAPAAAGCEAASAAAPAALWREAAGAAASAEREAPATAVAGDGDNGSGLRREPRAADDFDDDEGEEEDEAAAAAAAAAIGYRDNLLLTDGLLTNGFHSCESDDDDRTSHASSSDWTPRPRIGPYTFVQQHLMIGTDPRTILKDLLPETIPPPELDDMTLWQIVINILSEPPKRKKRKDINTIEDAVKLLQECKKIIVLTGAGVSVSCGAPDFRSRDGIYARLAVDFPDLPDPQAMFDIEYFRKDPRPFFKFAKEIYPGQFQPSLCHKFIALSDKEGKLLRNYTQNIDTLEQVAGIQRILQCHGSFATASCLICKYKVDCEAVRGDIFNQVVPRCPRCPADEPLAIMKPEIVFFGENLPEQFHRAMKYDKDEVDLLIVIGSSLKVRPVALIPSSIPHEVPQILINREPLPHLHFDVELLGDCDVIINELCHRLGGEYAKLCCNPVKLSEITEKPPRPQKELVHLSELPPTPLHISEDSSSPERTVPQDSSVIATLVDQATNNNVNDLEVSESSCVEEKPQEVQTSRNVENINVENPDFKAVGSSTADKNERTSVAETVRKCWPNRLAKEQISKRLEGNQYLFVPPNRYIFHGAEVYSDSEDDVLSSSSCGSNSDSGTCQSPSLEEPLEDESEIEEFYNGLEDDTERPECAGGSGFGADGGDQEVVNEAIATRQELTDVNYPSDKS
B5: recombinant mSir2α mutant G255A (protein)
chain: MADEVALALQAAGSPSAAAAMEAASQPADEPLRKRPRRDGPGLGRSPGEPSAAVAPAAAGCEAASAAAPAALWREAAGAAASAEREAPATAVAGDGDNGSGLRREPRAADDFDDDEGEEEDEAAAAAAAAAIGYRDNLLLTDGLLTNGFHSCESDDDDRTSHASSSDWTPRPRIGPYTFVQQHLMIGTDPRTILKDLLPETIPPPELDDMTLWQIVINILSEPPKRKKRKDINTIEDAVKLLQECKKIIVLTGAAVSVSCGIPDFRSRDGIYARLAVDFPDLPDPQAMFDIEYFRKDPRPFFKFAKEIYPGQFQPSLCHKFIALSDKEGKLLRNYTQNIDTLEQVAGIQRILQCHGSFATASCLICKYKVDCEAVRGDIFNQVVPRCPRCPADEPLAIMKPEIVFFGENLPEQFHRAMKYDKDEVDLLIVIGSSLKVRPVALIPSSIPHEVPQILINREPLPHLHFDVELLGDCDVIINELCHRLGGEYAKLCCNPVKLSEITEKPPRPQKELVHLSELPPTPLHISEDSSSPERTVPQDSSVIATLVDQATNNNVNDLEVSESSCVEEKPQEVQTSRNVENINVENPDFKAVGSSTADKNERTSVAETVRKCWPNRLAKEQISKRLEGNQYLFVPPNRYIFHGAEVYSDSEDDVLSSSSCGSNSDSGTCQSPSLEEPLEDESEIEEFYNGLEDDTERPECAGGSGFGADGGDQEVVNEAIATRQELTDVNYPSDKS
B6: recombinant mSir2α mutant S257A (protein)
chain: MADEVALALQAAGSPSAAAAMEAASQPADEPLRKRPRRDGPGLGRSPGEPSAAVAPAAAGCEAASAAAPAALWREAAGAAASAEREAPATAVAGDGDNGSGLRREPRAADDFDDDEGEEEDEAAAAAAAAAIGYRDNLLLTDGLLTNGFHSCESDDDDRTSHASSSDWTPRPRIGPYTFVQQHLMIGTDPRTILKDLLPETIPPPELDDMTLWQIVINILSEPPKRKKRKDINTIEDAVKLLQECKKIIVLTGAGVAVSCGIPDFRSRDGIYARLAVDFPDLPDPQAMFDIEYFRKDPRPFFKFAKEIYPGQFQPSLCHKFIALSDKEGKLLRNYTQNIDTLEQVAGIQRILQCHGSFATASCLICKYKVDCEAVRGDIFNQVVPRCPRCPADEPLAIMKPEIVFFGENLPEQFHRAMKYDKDEVDLLIVIGSSLKVRPVALIPSSIPHEVPQILINREPLPHLHFDVELLGDCDVIINELCHRLGGEYAKLCCNPVKLSEITEKPPRPQKELVHLSELPPTPLHISEDSSSPERTVPQDSSVIATLVDQATNNNVNDLEVSESSCVEEKPQEVQTSRNVENINVENPDFKAVGSSTADKNERTSVAETVRKCWPNRLAKEQISKRLEGNQYLFVPPNRYIFHGAEVYSDSEDDVLSSSSCGSNSDSGTCQSPSLEEPLEDESEIEEFYNGLEDDTERPECAGGSGFGADGGDQEVVNEAIATRQELTDVNYPSDKS
B7: recombinant mSir2α mutant F265A (protein)
chain: MADEVALALQAAGSPSAAAAMEAASQPADEPLRKRPRRDGPGLGRSPGEPSAAVAPAAAGCEAASAAAPAALWREAAGAAASAEREAPATAVAGDGDNGSGLRREPRAADDFDDDEGEEEDEAAAAAAAAAIGYRDNLLLTDGLLTNGFHSCESDDDDRTSHASSSDWTPRPRIGPYTFVQQHLMIGTDPRTILKDLLPETIPPPELDDMTLWQIVINILSEPPKRKKRKDINTIEDAVKLLQECKKIIVLTGAGVSVSCGIPDARSRDGIYARLAVDFPDLPDPQAMFDIEYFRKDPRPFFKFAKEIYPGQFQPSLCHKFIALSDKEGKLLRNYTQNIDTLEQVAGIQRILQCHGSFATASCLICKYKVDCEAVRGDIFNQVVPRCPRCPADEPLAIMKPEIVFFGENLPEQFHRAMKYDKDEVDLLIVIGSSLKVRPVALIPSSIPHEVPQILINREPLPHLHFDVELLGDCDVIINELCHRLGGEYAKLCCNPVKLSEITEKPPRPQKELVHLSELPPTPLHISEDSSSPERTVPQDSSVIATLVDQATNNNVNDLEVSESSCVEEKPQEVQTSRNVENINVENPDFKAVGSSTADKNERTSVAETVRKCWPNRLAKEQISKRLEGNQYLFVPPNRYIFHGAEVYSDSEDDVLSSSSCGSNSDSGTCQSPSLEEPLEDESEIEEFYNGLEDDTERPECAGGSGFGADGGDQEVVNEAIATRQELTDVNYPSDKS
B8: recombinant mSir2α mutant T336A (protein)
chain: MADEVALALQAAGSPSAAAAMEAASQPADEPLRKRPRRDGPGLGRSPGEPSAAVAPAAAGCEAASAAAPAALWREAAGAAASAEREAPATAVAGDGDNGSGLRREPRAADDFDDDEGEEEDEAAAAAAAAAIGYRDNLLLTDGLLTNGFHSCESDDDDRTSHASSSDWTPRPRIGPYTFVQQHLMIGTDPRTILKDLLPETIPPPELDDMTLWQIVINILSEPPKRKKRKDINTIEDAVKLLQECKKIIVLTGAGVSVSCGIPDFRSRDGIYARLAVDFPDLPDPQAMFDIEYFRKDPRPFFKFAKEIYPGQFQPSLCHKFIALSDKEGKLLRNYAQNIDTLEQVAGIQRILQCHGSFATASCLICKYKVDCEAVRGDIFNQVVPRCPRCPADEPLAIMKPEIVFFGENLPEQFHRAMKYDKDEVDLLIVIGSSLKVRPVALIPSSIPHEVPQILINREPLPHLHFDVELLGDCDVIINELCHRLGGEYAKLCCNPVKLSEITEKPPRPQKELVHLSELPPTPLHISEDSSSPERTVPQDSSVIATLVDQATNNNVNDLEVSESSCVEEKPQEVQTSRNVENINVENPDFKAVGSSTADKNERTSVAETVRKCWPNRLAKEQISKRLEGNQYLFVPPNRYIFHGAEVYSDSEDDVLSSSSCGSNSDSGTCQSPSLEEPLEDESEIEEFYNGLEDDTERPECAGGSGFGADGGDQEVVNEAIATRQELTDVNYPSDKS

Molecular target: histone H2B (calf thymus), P62808

| Protein | ADP-ribosyl-transferase activity of the immune complex on Protein A-Sepharose beads | mono-ADP-ribosylation activity relative to wild type (Phosphorimaging) |
| --- | --- | --- |
| B1 | ADP-ribosyl-transferase activity could be detected for the endogenous mSir2α immunoprecipitated from NIH3T3 whole cell extracts |  |
| B2 |  | completely abolished the activity |
| B3 |  | completely abolished the activity |
| B4 |  | completely abolished the activity |
| B5 |  | completely abolished the activity |
| B6 |  | completely abolished the activity |
| B7 |  | completely abolished the activity |
| B8 |  | completely abolished the activity |
